In experiment [1] the target is T1, 비오틴 펩타이드-6xHis-tagged HCoV-OC43 N 단백질 (HCoV-OC43 N 단백질-Bio-His6) (HCoV-OC43, UniProt P33469 1-448).
T1 chain: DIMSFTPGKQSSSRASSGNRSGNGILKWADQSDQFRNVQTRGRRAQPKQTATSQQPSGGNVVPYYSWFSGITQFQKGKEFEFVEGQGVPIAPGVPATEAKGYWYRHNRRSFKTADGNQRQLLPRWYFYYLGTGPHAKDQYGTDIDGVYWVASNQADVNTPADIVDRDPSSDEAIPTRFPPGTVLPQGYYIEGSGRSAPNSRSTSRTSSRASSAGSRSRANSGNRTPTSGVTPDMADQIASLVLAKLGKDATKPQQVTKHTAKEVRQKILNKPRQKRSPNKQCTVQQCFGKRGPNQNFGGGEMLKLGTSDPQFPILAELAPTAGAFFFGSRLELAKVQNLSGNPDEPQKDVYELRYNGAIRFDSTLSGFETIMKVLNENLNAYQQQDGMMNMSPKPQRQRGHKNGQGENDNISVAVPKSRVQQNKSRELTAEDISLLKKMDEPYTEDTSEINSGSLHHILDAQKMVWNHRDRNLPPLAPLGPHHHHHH

Experiment [2] has as its target MERS-CoV N 단백질 (MERS-CoV 감염 Vero 세포 용해물) (MERS-CoV, UniProt K9N4V7 1-411). Nature of the experiment: western blot of infected Vero cell lysates. A general note: In western blotting, separated proteins are transferred to a membrane and probed.
Experiment [3] has as its target SARS-CoV-2 N 단백질 (SARS-CoV-2 감염 Vero 세포 용해물) (SARS-CoV-2, UniProt P0DTC9 1-419). Nature of the experiment: western blot of infected Vero cell lysates.

B1: 항-HCoV-OC43 N 단백질 특이적 단클론 항체 (클론 1C7D7 mAb) (antibody, V domains shown)
VH: EVKLEQSGGGLVKPGGSLKLSCAASGFSFSSHTMSWVRQTPEKRLEWVATITSGGTYTYYPDSVKGRFTISRDNAKNTLYLQMTSLKSEDTAMYYCTRGQEADGYYVPFAYWGQGTLVTVSA
VL: DIVMTQSPSSLAVSVGEKVTMSCKSSQSLLYSSNQKNYLAWYQQKPGQSPKLLIFWASTRESGVPDRFTGSGSGTDFTLTISSVQAEDLAVYYCKQSYNLRTFGGGTKLEIKR
notes: also called anti-HCoV-OC43 N monoclonal antibody
Usually EC50 stands for the concentration needed to bring the measured effect to its halfway point. As for B1, the concentration for a half-maximal effect (EC50) in experiment [1] is around 1.2 nM. Further, the binding result in experiment [2] and in experiment [3] was “no binding” each time.
